Literature values, collected in publication PMC2778592.

Target: EGFR (Homo sapiens) (UniProt P00533)

Kd: 74 µM
Substance: tenascin-C Ten14 EGF-L repeat (from UniProt P24821)
